Laboratory results: patent US20120121706A1 (TUFTS MEDICAL CENTER, published 2012)

B1: proMMP-1 (platelet-associated zymogen of MMP-1) (enzyme, human, UniProt P03956 20-469, looked up)
chain: FPATLETQEQDVDLVQKYLEKYYNLKNDGRQVEKRRNSGPVVEKLKQMQEFFGLKVTGKPDAETLKVMKQPRCGVPDVAQFVLTEGNPRWEQTHLTYRIENYTPDLPRADVDHAIEKAFQLWSNVTPLTFTKVSEGQADIMISFVRGDHRDNSPFDGPGGNLAHAFQPGPGIGGDAHFDEDERWTNNFREYNLHRVAAHELGHSLGLSHSTDIGALMYPSYTFSGDVQLAQDDIDGIQAIYGRSQNPVQPIGPQTPKACDSKLTFDAITTIRGEVMFFKDRFYMRTNPFYPEVELNFISVFWPQLPNGLEAAYEFADRDEVRFFKGNKYWAVQGQNVLHGYPKDIYSSFGFPRTVKHIDAALSEENTGKTYFFVANKYWRYDEYKRSMDPGYPKMIAHDFPGIGHKVDAVFMKDGFFYFFHGTRQYKFDPKTKRILTLQKANSWFNCRKN
notes: Endogenous protein co-immunoprecipitated from platelet lysates; detected by Western with AB8105 or AB806; also called MMP-1 (predominantly in the pro form)
B2: GPVI of human platelets (receptor, UniProt Q9HCN6 21-339, looked up)
chain: QSGPLPKPSLQALPSSLVPLEKPVTLRCQGPPGVDLYRLEKLSSSRYQDQAVLFIPAMKRSLAGRYRCSYQNGSLWSLPSDQLELVATGVFAKPSLSAQPGPAVSSGGDVTLQCQTRYGFDQFALYKEGDPAPYKNPERWYRASFPIITVTAAHSGTYRCYSFSSRDPYLWSAPSDPLELVVTGTSVTPSRLPTEPPSPVAEFSEATAELTVSFTNEVFTTETSRSITASPKESDSPAGPARQYYTKGNLVRICLGAVILIILAGFLAEDWHSRRKRLRHRGRAVQRPLPPLPPLPLTRKSNGGQDGGRQDVHSRGLCS
notes: also called GPVI collagen receptor

Key:
[1] = biological target: PAR1 (protease-activated receptor-1) on human platelets (human) (UniProt P25116); assay: cell-based or functional assay
[2] = biological target: PAR4 thrombin receptor on human platelets (human) (UniProt Q96RI0); assay: cell-based or functional assay
[3] = biological target: GPIbα of human platelets (human, UniProt P07359 17-652); assay: co-immunoprecipitation from resting human platelet lysates (anti-GPIBα MM2/174), Western for MMP-1
Experimental: (§1) One candidate binding site(s) for the platelet-associated proMMP-1 is the α₂β₁ collagen receptor. To determine if proMMP-1 associates with integrins in resting human platelets, lysates from gel-filtered platelets were incubated with 4-5 μg/ml anti-α₂ (Gi9 or AK7), β₁ (MAB1987), β₃ (MAB1957), GPVI (SC20149), GPIBα (MM2/174) or mouse IgG control for 2-4 h at 4° C. Protein G sepharose was added and incubated for an additional 1 h. Beads were collected and washed 4× in lysis buffer supplemented with 200 mM NaCl.

[4] = biological target: B1; assay: co-immunoprecipitation from resting human platelet lysates (anti-GPVI SC20149), Western for MMP-1
Experimental: as §1

Sequence of PAR4 thrombin receptor on human platelets (human) (Q96RI0 48-385): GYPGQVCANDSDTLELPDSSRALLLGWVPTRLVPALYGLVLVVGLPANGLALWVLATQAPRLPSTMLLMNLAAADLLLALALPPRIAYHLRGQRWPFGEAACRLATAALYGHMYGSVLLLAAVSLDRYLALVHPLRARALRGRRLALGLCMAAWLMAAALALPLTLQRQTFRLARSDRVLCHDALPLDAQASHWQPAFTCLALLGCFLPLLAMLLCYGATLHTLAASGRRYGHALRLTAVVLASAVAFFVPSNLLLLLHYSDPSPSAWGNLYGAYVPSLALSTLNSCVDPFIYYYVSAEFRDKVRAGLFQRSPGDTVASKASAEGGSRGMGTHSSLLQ
Sequence of PAR1 (protease-activated receptor-1) on human platelets (human) (P25116 42-425): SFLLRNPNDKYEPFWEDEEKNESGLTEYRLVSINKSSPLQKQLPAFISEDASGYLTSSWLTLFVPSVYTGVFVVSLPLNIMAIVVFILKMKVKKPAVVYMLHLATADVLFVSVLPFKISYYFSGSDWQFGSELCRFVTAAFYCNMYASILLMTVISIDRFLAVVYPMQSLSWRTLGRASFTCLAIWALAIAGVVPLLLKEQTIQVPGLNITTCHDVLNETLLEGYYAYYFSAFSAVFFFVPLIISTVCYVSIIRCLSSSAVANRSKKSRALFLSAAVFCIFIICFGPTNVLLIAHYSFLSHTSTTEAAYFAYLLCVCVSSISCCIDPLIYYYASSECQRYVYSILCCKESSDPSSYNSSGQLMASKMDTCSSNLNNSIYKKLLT

## P1pal-12 (PAR1 pepducin lipopeptide)
[1]
  decrease in growth rate and size of platelet aggregate strings on collagen under arterial flow, 3 µM: 75%

## P4pal-10 (PAR4 pepducin lipopeptide)
[2]
  collagen-induced platelet aggregation, 3 µM pepducin: 10%

## B1
[3]
  binding result: no binding

## B2
[4]
  binding result: no binding
